Reference: PMC6222646, “HIV-1 Integrase-Targeted Short Peptides Derived from a Viral Protein R Sequence” (Molecules : A Journal of Synthetic Chemistry and Natural …, 2018)
Where no end group is shown, it is not given here.

B1: peptide 1c (Ac-FIHFRIG-amide) (peptide)
peptide: Ac-FIHFRIG-NH2
B2: peptide 1b (FIHFRIG-amide) (peptide)
peptide: FIHFRIG-NH2

Target: HIV-1 integrase (IN) (HIV-1)

Binder | 3'-P IC50 (in vitro IN 3'-processing assay) | ST IC50 (in vitro IN strand transfer assay)
B1 | 23.5 µM | 4.7 µM
B2 | 31.5 µM | 7.3 µM
